Measured values from patent US20250376709A1, “PAPB AS A BIMOIETY-DEPENDENT THIOETHER INSTALLATION TOOL” (UNIVERSITY OF UTAH RESEARCH FOUNDATION, priority 2022, published 2025).
Residue numbers refer to the chain shown, from its start. Square brackets hold non-standard residues; d marks the D form. Ends that are not written are not given here.

Key:
PapB = assay: Enzymatic reactions of msPapA peptides with PapB (thioether crosslinking, U/HPLC-MS readout); type: biochemical; details: for extent of conversion to crosslinked peptide by PapB (in words): incubation with PapB, SAM and reductant, MS isotopic envelope; for substrate conversion: after 300 s; for substrate converted to crosslinked product: assessed from MS isotopic envelope after PapB
Procedure: Assays were conducted in a Coy Laboratories anaerobic chamber with 98% N2/2% H2 atmosphere at room temperature. All reactions contained 0.05 M PIPES·NaOH (pH 7.4), 2 mM DTT, 2.4 mM SAM (enzymatically synthesized and purified as previously described (deGruyter, J. N., et al. Biochem. 2017, 56 (30), 3863-3873)), ˜100-400 μM msPapA variants (concentration determined by peptide dry weight or by spectroscopic analysis in the case of Y19W), and […]-10 μM PapB. Either dithionite (dT) or flavodoxin (FldA), flavodoxin reductase (FPR) and NADPH were used to reduce PapB. For the assays that used chemical reductant, the total concentration was 2 mM dT. For the assays that used the biological reducing system, the mixtures contained 25 μM FldA, 2 μM FPR and 2 mM NADPH. The total volume of the reactions ranged from 0.1 mL for initial screenings to 0.5 mL for MS/MS Collision Induced Dissociation (CID) fragmentation experiments described below. Control reactions in the absence of dT, SAM and PapB were also conducted. Reactions were initiated with the addition of PapB and quenched at times ranging from 15 s to 2 h by the addition of 10% of the reaction volume of 30% (w/v) trichloroacetic acid (TCA, ACS grade). The samples were centrifuged at 16,000×g for 10 min in a microcentrifuge to pellet the precipitated PapB.
The assays were analyzed using either a Vanquish UHPLC with a diode-array detector connected to a Q-Exactive mass spectrometer or an Ultimate 3000 HPLC with a diode-array detector connected to a LTQ OrbiTrap XL mass spectrometer. Each was operated in positive ion mode, the FT analyzer was set to 100,000 resolution, 1 microscan, and 200 ms maximum injection time. Xcalibur software was used to analyze data. A 20 μL aliquot was injected onto a Hypersil GOLD C18 column (2.1 mm×150 mm, 1.9 μm particle size) (Thermo Fisher) pre-equilibrated in 0.1% (v/v) LC-MS Optima TFA (Fisher in LC-MS Optima water (Fisher). Chromatographic steps were carried out at 0.2 mL/min with buffer A containing 0.1% (v/v) TFA in Optima water and buffer B containing Optima grade acetonitrile with 0.1% (v/v) TFA. The separation consisted of washing with 100% A from 0 to 3 min, followed by a linear gradient from 100% to 0% A from 3 to 6 min, washing with 0% A from 6 to 10 min, and reequilibration with 100% A from 10 to 14 min. […]

Leader-DSAN^DCA = system: T1, Leader-DSAN^DCA
T1 sequence: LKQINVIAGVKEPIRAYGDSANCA

Leader-DSANCA = system: T2, Leader-DSANCA
T2 sequence: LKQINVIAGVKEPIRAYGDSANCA

Leader-CSNDAAA = system: T3, Leader-CSNDAAA
T3 sequence: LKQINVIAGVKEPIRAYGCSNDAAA

Leader-CSAANDA = system: T4, Leader-CSAANDA
T4 sequence: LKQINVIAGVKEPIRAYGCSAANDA

Leader-CSAAANDA = system: T5, Leader-CSAAANDA
T5 sequence: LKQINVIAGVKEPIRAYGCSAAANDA

[1] = system: T6, minimal substrate PapA (msPapA)
T6 sequence: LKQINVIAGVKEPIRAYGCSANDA

Leader-AAACSANDACSANDA = system: T7, Leader-AAACSANDACSANDA
T7 sequence: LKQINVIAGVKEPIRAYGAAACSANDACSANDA

Leader-^DDSANCA = system: T8, Leader-^DDSANCA
T8 sequence: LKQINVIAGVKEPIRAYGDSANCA

Leader-CSAAAANDA = system: T9, Leader-CSAAAANDA
T9 sequence: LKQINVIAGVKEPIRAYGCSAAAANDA

leader-^DCSAN^DDA = system: T10, leader-^DCSAN^DDA
T10 sequence: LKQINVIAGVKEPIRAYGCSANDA

Leader-CDSNNAANA = system: T11, Leader-CDSNNAANA
T11 sequence: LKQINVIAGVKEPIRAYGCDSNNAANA

Leader-^DDSAN^DCA = system: T12, Leader-^DDSAN^DCA
T12 sequence: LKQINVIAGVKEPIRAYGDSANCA

Leader-AAACSACDAADA = system: T13, Leader-AAACSACDAADA
T13 sequence: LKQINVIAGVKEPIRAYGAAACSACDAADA

leader-CSAN^DDA = system: T14, leader-CSAN^DDA
T14 sequence: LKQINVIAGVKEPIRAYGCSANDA

Leader-AAACSANDA = system: T15, Leader-AAACSANDA
T15 sequence: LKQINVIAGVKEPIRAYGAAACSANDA

Leader-AAAASACDAADA = system: T16, Leader-AAAASACDAADA
T16 sequence: T13 sequence with C22A

Leader-AAACSAADAADA = system: T17, Leader-AAACSAADAADA
T17 sequence: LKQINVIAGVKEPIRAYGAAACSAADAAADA

Y17W msPapA = system: T18, Y17W msPapA
T18 sequence: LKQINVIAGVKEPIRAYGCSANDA

leader-^DCSANDA = system: T19, leader-^DCSANDA
T19 sequence: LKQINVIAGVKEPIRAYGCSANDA

Leader-CSDNNAAA = system: T20, Leader-CSDNNAAA
T20 sequence: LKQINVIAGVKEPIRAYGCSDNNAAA

Substance: LKQINVIAGVKEPIRAYGCDSNNAANA [CX0D]
- extent of conversion to crosslinked peptide by PapB (in words) (PapB): did not fully react

Substance: LKQINVIAGVKEPIRAYGCSAAAANDA [CX6D]
- extent of conversion to crosslinked peptide by PapB (in words) (PapB): did not fully react

Substance: LKQINVIAGVKEPIRAYGCSANDA [msPapA, reference compound]
- kinetics with dT relative to biological reducing system (PapB; 430 nM PapB, 191 μM peptide): roughly 3 fold
- substrate conversion (PapB; biological reducing system (FldA/FPR/NADPH)): 100%
- substrate conversion (PapB; chemical reducing system (dT)): 100%
- turnover number (approximation of kcat for PapB) (PapB; dithionite (dT) as reductant, 430 nM PapB, 191 μM peptide, linear portion of curve, FIG. 5 names Y17W msPapA): 7.4 ± 0.1 s⁻¹
- extent of conversion to crosslinked peptide by PapB (in words) (PapB): complete conversion

Substance: LKQINVIAGVKEPIRAYGCSAN^DDA [leader-CSAN^DDA]
- extent of conversion to crosslinked peptide by PapB (in words) (PapB): conversion is not complete

Substance: LKQINVIAGVKEPIRAYGENLYFQ^DFCF^DWKTET [octreotide analog]
- substrate converted to crosslinked product (PapB): ~75%

Substance: LKQINVIAGVKEPIRAYGPCSAN^DDA [leader-^DCSAN^DDA]
- substrate converted to crosslinked product (PapB): ≥ 15%
- extent of conversion to crosslinked peptide by PapB (in words) (PapB): processed inefficiently

Substance: LKQINVIAGVKEPIRAYG^DCSANDA (LKQINVIAGVKEPIRAYG[dC]SANDA) [leader-^DCSANDA]
- extent of conversion to crosslinked peptide by PapB (in words) (PapB): full conversion

Substance: PapB
- thioether crosslinking (MS) (Leader-DSAN^DCA): we were unable to observe any crosslinked product with the transposed peptides, either with L- or D-amino acids
- thioether crosslinking (MS) (Leader-DSANCA): we were unable to observe any crosslinked product with the transposed peptides, either with L- or D-amino acids
- thioether crosslinking (loss of 2 Da, MS) (Leader-CSNDAAA): the reactions with 1-5 intervening residues appear to go to completion
- thioether crosslinking (loss of 2 Da, MS) (Leader-CSAANDA): the reactions with 1-5 intervening residues appear to go to completion
- thioether crosslinking (loss of 2 Da, MS) (Leader-CSAAANDA): the reactions with 1-5 intervening residues appear to go to completion
- thioether crosslinking (loss of 2 Da, HR-MS) [1]: complete conversion of msPapA to a singly crosslinked peptide is routinely observed using 0.1 nmol PapB and 20 mmol msPapA in 5 min
- thioether crosslinking (loss of 2 Da, MS) [1]: the reactions with 1-5 intervening residues appear to go to completion
- thioether crosslinking (loss of 4 Da, MS) (Leader-AAACSANDACSANDA): all the peptides that were examined were efficiently crosslinked by the enzyme
- thioether crosslinking (MS) (Leader-^DDSANCA): we were unable to observe any crosslinked product with the transposed peptides, either with L- or D-amino acids
- thioether crosslinking (loss of 2 Da, MS) (Leader-CSAAAANDA): CX0D (FIG. 8B) and CX6D (FIG. 8C) did not fully react--suggesting that PapB does not processes these motifs efficiently
- substrate converted to crosslinked product (MS) (leader-^DCSAN^DDA): at least ˜15% of the substrate is converted to product
- thioether crosslinking (loss of 2 Da, MS) (Leader-CDSNNAANA): CX0D (FIG. 8B) and CX6D (FIG. 8C) did not fully react--suggesting that PapB does not processes these motifs efficiently
- thioether crosslinking (MS) (Leader-^DDSAN^DCA): we were unable to observe any crosslinked product with the transposed peptides, either with L- or D-amino acids
- thioether crosslinking (loss of 4 Da, MS) (Leader-AAACSACDAADA): all the peptides that were examined were efficiently crosslinked by the enzyme
- thioether crosslinking (loss of 2 Da, MS) (leader-CSAN^DDA): significant substrate turnover is observed as well, but the conversion is not complete
- thioether crosslinking (loss of 2 Da, MS) (Leader-AAACSANDA): all the peptides that were examined were efficiently crosslinked by the enzyme
- thioether crosslinking (loss of 2 Da, MS) (Leader-AAAASACDAADA): all the peptides that were examined were efficiently crosslinked by the enzyme
- thioether crosslinking (loss of 2 Da, MS) (Leader-AAACSAADAADA): all the peptides that were examined were efficiently crosslinked by the enzyme
- turnover number with dithionite (approximation of kcat) (Y17W msPapA): 7.4±0.1 s^-1 with dT
- turnover number with the biological reducing system FldA/FPR/NADPH (approximation of kcat) (Y17W msPapA): 2.6=0.2 s^-1 are estimated with the biological reducing system
- thioether crosslinking (loss of 2 Da, MS) (leader-^DCSANDA): full conversion to the crosslinked peptide is seen, as evidenced by the loss of 2 Da
- thioether crosslinking (loss of 2 Da, MS) (Leader-CSDNNAAA): the reactions with 1-5 intervening residues appear to go to completion
